Laboratory results taken from paper PMC5389526.

T1: Cas1-Cas2 complex (native Cas1 + Cas2-His6) (Escherichia coli, UniProt Q46896;P45956 1-305;1-94)
T1 sequence 1: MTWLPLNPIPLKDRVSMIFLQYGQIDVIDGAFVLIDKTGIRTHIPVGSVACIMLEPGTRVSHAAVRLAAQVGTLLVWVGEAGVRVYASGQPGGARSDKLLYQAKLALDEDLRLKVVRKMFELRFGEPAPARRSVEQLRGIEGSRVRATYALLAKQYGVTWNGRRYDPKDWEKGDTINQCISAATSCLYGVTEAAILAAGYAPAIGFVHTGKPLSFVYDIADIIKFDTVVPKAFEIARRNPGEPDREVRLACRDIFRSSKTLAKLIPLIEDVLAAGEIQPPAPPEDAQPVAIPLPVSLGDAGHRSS
T1 sequence 2: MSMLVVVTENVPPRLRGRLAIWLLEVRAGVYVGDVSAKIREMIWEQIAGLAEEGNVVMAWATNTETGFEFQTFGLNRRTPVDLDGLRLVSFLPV


Molecular target: T1, Cas1-Cas2 complex (native Cas1 + …)
Assay: EMSA

Binder	binding result
ATTTCAGCTACTCCGATGGCCCATATGCGGATT (ssDNA) [S1 oligonucleotide]	no binding
ATTTCAGCTACTCCGATGGCCCATATGCGGATC (ssDNA) [S2 oligonucleotide]	no binding
